Experimental data reported in patent US20220229058A1.
Where no end group is shown, it is not given here.

B1: norovirus-binding peptide of SEQ ID NO: 52 (peptide)
peptide: KYRATICHTV
modifications: also: biotinylated, residue not given here, spacer sequence added, letters and position not given here
B2: norovirus-binding peptide of SEQ ID NO: 156 (peptide)
peptide: VVGFGRRSLF
modifications: also: biotinylated, residue not given here, spacer sequence added, letters and position not given here
B3: norovirus-binding peptide of SEQ ID NO: 150 (peptide)
peptide: VCVDNDISMS
modifications: also: biotinylated, residue not given here, spacer sequence added, letters and position not given here
B4: norovirus-binding peptide of SEQ ID NO: 43 (peptide)
peptide: YVIRNSDRHN
modifications: also: biotinylated, residue not given here, spacer sequence added, letters and position not given here
B5: norovirus-binding peptide of SEQ ID NO: 163 (peptide)
peptide: SVMVTRSLFG
modifications: also: biotinylated, residue not given here, spacer sequence added, letters and position not given here
B6: norovirus-binding peptide of SEQ ID NO: 59 (peptide)
peptide: YRRSKSEIFV
modifications: also: biotinylated, residue not given here, spacer sequence added, letters and position not given here
B7: norovirus-binding peptide of SEQ ID NO: 48 (peptide)
peptide: ICSSWFPSVH
modifications: also: biotinylated, residue not given here, spacer sequence added, letters and position not given here
B8: norovirus-binding peptide of SEQ ID NO: 143 (peptide)
peptide: YVVASKSNRL
modifications: also: biotinylated, residue not given here, spacer sequence added, letters and position not given here
B9: norovirus-binding peptide of SEQ ID NO: 155 (peptide)
peptide: VELFLLTSSC
modifications: also: biotinylated, residue not given here, spacer sequence added, letters and position not given here
B10: norovirus-binding peptide of SEQ ID NO: 172 (peptide)
peptide: GCVGDLYCSA
modifications: cysteine pairing not given here; also: biotinylated, residue not given here, spacer sequence added, letters and position not given here
B11: norovirus-binding peptide of SEQ ID NO: 131 (peptide)
peptide: NFRVPIRFTH
modifications: also: biotinylated, residue not given here, spacer sequence added, letters and position not given here
B12: norovirus-binding peptide of SEQ ID NO: 154 (peptide)
peptide: ECMGRRWMSS
modifications: also: biotinylated, residue not given here, spacer sequence added, letters and position not given here

Target: norovirus GII.17 Saitama strain virus-like particle (VLP) (norovirus GII.17 Saitama strain)
Test: BLI (BLItz), biotinylated peptide on SA chip, VLP in solution

| Binder | Kd | koff | kon |
| --- | --- | --- | --- |
| B1 | 0.0179 µM | 0.0232 s⁻¹ | 1.29e+06 M⁻¹ s⁻¹ |
| B2 | 234 µM | 0.0931 s⁻¹ | 398 M⁻¹ s⁻¹ |
| B3 | 2510 µM | 0.255 s⁻¹ |  |
| B4 | 234 µM | 0.192 s⁻¹ | 822 M⁻¹ s⁻¹ |
| B5 | 0.168 µM | 0.0185 s⁻¹ | 110000 M⁻¹ s⁻¹ |
| B6 | 0.383 µM | 0.0511 s⁻¹ | 134000 M⁻¹ s⁻¹ |
| B7 | 0.0766 µM | 0.0978 s⁻¹ | 1.28e+06 M⁻¹ s⁻¹ |

Target: norovirus GII.3 TCH strain virus-like particle (VLP) (norovirus GII.3 TCH strain)
Test: as above

| Binder | Kd | koff | kon |
| --- | --- | --- | --- |
| B8 | 13.5 nM | 0.0044 s⁻¹ | 325000 M⁻¹ s⁻¹ |
| B9 | 803000 nM | 0.0926 s⁻¹ | 115 M⁻¹ s⁻¹ |
| B1 | 13.8 nM | 0.0103 s⁻¹ | 747000 M⁻¹ s⁻¹ |
| B2 | 1060 nM | 0.0713 s⁻¹ | 67300 M⁻¹ s⁻¹ |
| B3 | 437 nM | 0.0118 s⁻¹ | 27000 M⁻¹ s⁻¹ |
| B10 | 69300 nM | 0.0131 s⁻¹ | 189 M⁻¹ s⁻¹ |
| B11 | 157000 nM | 0.262 s⁻¹ | 1660 M⁻¹ s⁻¹ |
| B4 | 67.2 nM | 0.0793 s⁻¹ | 1.18e+06 M⁻¹ s⁻¹ |
| B5 | 7.66 nM | 0.00786 s⁻¹ | 1.03e+06 M⁻¹ s⁻¹ |
| B6 | 8.87 nM | 0.00714 s⁻¹ | 805000 M⁻¹ s⁻¹ |
| B7 | 30.3 nM | 0.0246 s⁻¹ | 810000 M⁻¹ s⁻¹ |
| B12 | 123 nM | 0.0173 s⁻¹ | 141000 M⁻¹ s⁻¹ |
